Measurements as given in the supplement of paper PMC10567573.
± gives the standard deviation.

Assay: protein stability index of a GFP-peptide fusion (GPS, HEK-293T) (PSI 1-6); higher = more stable
Conditions: c terminus: a fixed tail appended
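Note: 24-mer peptide tiles fused after GFP, lentivirally expressed, FACS-sorted into six equal bins by GFP/DsRed ratio, decoded by Illumina sequencing, PSI is the read-weighted mean bin number.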

| Sequence | protein stability index (treatment: DMSO) | protein stability index (treatment: MLN4924 1 uM, 8 h) |
| --- | --- | --- |
| TSGGLLSEAPNEKLFFVDTGSKEK [NOP53] | 4.92 ± 0.25 | 4.84 ± 0.68 |
| EKQLAKKEQSKELQMKLEKLREKE [FAM50A] | 5.34 ± 0.35 | 5.17 ± 0.39 |
| GGFLSESKDCKPPVYLLLELEDKD [MYBL2] | 3.99 ± 0.21 | 4.17 ± 0.32 |
| PLVLTEVLFNEKIREQIKKYRRHF [EIF5] | 2.31 ± 0.35 | 2.28 ± 0.33 |
| RDRNLLQEDKALWEEEKALWVEER [CCDC70] | 5.007 ± 0.024 | 5.04 ± 0.28 |
| KLMKILQPQDVDLALDSGASLLHL [RIPK4] | 2.11 ± 0.12 | 2.52 ± 0.21 |
| ANQLIDIISSDELNVRSEEQVFNA [KLHL20] | 4.42 ± 0.21 | 4.34 ± 0.25 |
| TQQTGTVRFDGYVIDGATALWCAA [FEM1B] | 2.3 ± 0.11 | 2.22 ± 0.34 |
| SCLLLQLRREKPSEEMVKMVLSRP [INTS3] | 2.64 ± 0.67 | 2.42 ± 0.34 |
| PFDMDSCLSRHSINPYSNRESRIL [DFFB] | 3.24 ± 0.29 | 3.22 ± 0.29 |
| RKLSPTEPKNYGSYSTQASAAAAT [SCAMP3] | 4.37 ± 0.17 | 4.38 ± 0.14 |
| DKPSEPASEEGSESEGSESSGRSC [SMG5] | 5.56 ± 0.25 | 5.6 ± 0.14 |
| KPKMYFMTMIVSLAAVAWVGQQVH [ARL6IP1] | 2.83 ± 0.48 | 3.28 ± 0.69 |
| SSAVSGVKEWFGLGGEQAEEKAFE [MIA2] | 5.09 ± 0.43 | 5.04 ± 0.19 |
| AFVSNSPKLFCPKNRSFDIDAIYS [PLD5] | 2.15 ± 0.8 | 2.51 ± 0.69 |
| EECAKWLLLNNANPNLSNRRGSTP [RIPK4] | 3.56 ± 0.17 | 3.71 ± 0.067 |
| AGKALVISGREVFEFRPELVNDDD [ZC3H15] | 4.21 ± 0.57 | 4.23 ± 0.35 |
| LAGAALEPAGGGRSREARSRLLLL [SMAD6] | 3.38 ± 0.27 | 3.65 ± 0.31 |
| MFIPETKGCSLEQISMELAKVNYV [SLC2A12] | 2.33 ± 0.62 | 2.39 ± 0.31 |
| YNALKLFMEMNQKLFDDCTQQFKA [PPP2R5C] | 2.46 ± 0.22 | 2.2 ± 0.24 |
| TLDKCGICQGDGSSCTHVTGNYRK [ADAMTSL2] | 4.91 ± 0.35 | 4.97 ± 0.33 |
| IRQYRLKKISKEEKTPGCVKIKKC [KRAS] | – | 3.31 ± 0.24 |
| GISALVEIPKNCVVAAVGKELIIF [WDR41] | 2.01 ± 1.1 | 2.69 ± 1.3 |

| Sequence | protein stability index (treatment: DMSO) | protein stability index (treatment: MLN4924 1 uM, 8 h) |
| --- | --- | --- |
| LCARLAAGPGAAEPLPVERDPAAG [ZNF511] | 4.47 ± 0.21 | 4.6 ± 0.21 |
| AKLALFYDWLFFSPDKDSIMNIEP [INTS3] | 2.04 ± 0.34 | 1.9 ± 0.43 |
| RYSCESRIRSYLREVSSYPSTVGA [DFFB] | 2.6 ± 0.27 | 2.73 ± 0.46 |
| NIADIEEKRGFTSHFVFVIEVKTK [NCF4] | 2.47 ± 0.74 | 2.62 ± 0.44 |
| DDDDEEEEVSEVESFILDQDDLEN [ANKRD17] | 5.765 ± 0.056 | 5.68 ± 0.13 |
| GKGSGGNAGSYIPSYTSWYPSAHQ [DLX1] | 2.56 ± 0.43 | 2.69 ± 0.48 |
| EPFPSSDDSPRSALAAATAAAAAA [SPAG8] | 5.2 ± 0.16 | 5.05 ± 0.18 |
| ILFLVIGGMLNFMMHDQRTGPAWN [SOAT2] | 3.27 ± 0.46 | 3.26 ± 0.55 |
| WKDLTLSTRPEEGCSLHEEDTQRH [TCAP] | 5.08 ± 0.25 | 5.13 ± 0.28 |
| VLKDELQLYGDAPGEVVPSGESGL [TMEM40] | 5.14 ± 0.24 | 5.26 ± 0.23 |
| DPEEAIRHDVIVSIVTAAKKDILL [PDS5B] | 2.3 ± 0.15 | 2.54 ± 0.3 |
| EAITSASFLEQIMAPLQPSTSRAH [FAM189A2] | 3.52 ± 0.13 | 3.59 ± 0.22 |
| LESLQDGAAESPYSHLGGIDYKTT [RAB40A] | 4.44 ± 0.12 | 4.35 ± 0.11 |
| YAIKRSKKPLAGSVDEQNALREVY [WEE1] | 3.3 ± 0.32 | 3.16 ± 0.25 |
| LGLSRAQPVQSKPQKASAPAADPP [PDLIM7] | 4.71 ± 0.16 | 4.86 ± 0.37 |
| TPPETKPDPPVNFLRQKVLSLPLP [PCMTD2] | 3.74 ± 0.24 | 3.85 ± 0.22 |
| LQDMLDGFIKKFVLCPECENPETD [EIF5] | 3.19 ± 0.43 | 3.34 ± 0.12 |
| IEREHLIQLRRWQETRGELQCRSP [TBC1D10A] | 3.88 ± 0.2 | 3.82 ± 0.24 |
| SLCNLEESITSAGRDDLESFQLEI [FAM98B] | 3.26 ± 0.16 | 3.45 ± 0.19 |
| QGEAFQRALESELQQLRARLQGLE [PBXIP1] | 3.1 ± 0.17 | 3.23 ± 0.28 |
| LEEKRLTWRLPDVSEAGGSGRLSA [FCHO1] | 4.37 ± 0.25 | 4.25 ± 0.044 |
| HSDPEESFARDLPDFPSINMDPAG [RETREG3] | 5.19 ± 0.25 | 5.22 ± 0.16 |
